{"source": "paper PMC11526878", "target": "ryanodine receptor 1 (RyR1) purified from rabbit skeletal muscle (rabbit) (UniProt P11716)", "experiment": "cryo-EM structure"}
{"substance": "ryanodine receptor 1 (RyR1) purified from rabbit skeletal muscle, P11716 1-5037", "values": [{"measurement": "stoichiometry N", "value": 4}]}
